The values below come from patent US20190016816A1 (APTEVO RESEARCH AND DEVELOPMENT, published 2019).

Test [1] addresses T1, human 5T4 on cells (human, UniProt Q13641 32-420).
T1 construct: also called TPBG; hu5T4
T1 sequence: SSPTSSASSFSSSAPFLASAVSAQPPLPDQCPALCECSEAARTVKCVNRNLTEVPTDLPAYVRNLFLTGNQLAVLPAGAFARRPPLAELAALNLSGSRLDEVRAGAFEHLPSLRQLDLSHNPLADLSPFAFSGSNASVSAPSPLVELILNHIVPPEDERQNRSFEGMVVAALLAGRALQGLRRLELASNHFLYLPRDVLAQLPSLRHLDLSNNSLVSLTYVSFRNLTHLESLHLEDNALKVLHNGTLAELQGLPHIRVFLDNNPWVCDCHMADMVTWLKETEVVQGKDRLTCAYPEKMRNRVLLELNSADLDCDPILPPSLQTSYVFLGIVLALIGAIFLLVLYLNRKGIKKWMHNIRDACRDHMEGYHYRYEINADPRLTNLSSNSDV
The test is described as follows: flow cytometry, TF-1 cells, PE goat anti-human Fc. The method, then: A 3-fold titration of ALG.APV-210 construct (ranging from 100 nM to 0.14 nM) was incubated with the human 5T4-expressing cell lines for 40 minutes in FACS buffer at 4° C., washed 3 times, and detected with PE-labeled, goat-anti-human Fc secondary antibody (Jackson ImmunoResearch). Binding of ALG.APV-210 was detected by flow cytometry. All samples were run in duplicates. Nonlinear regression analysis to determine EC₅₀ values was performed in GraphPad Prism 6® graphing and statistics software.

For test [2], the target named is T1, human 5T4 on cells. Put plainly: flow cytometry, CT26 cells transfected with human 5T4 (intermediate clone), biotinylated ALG.APV-210 + streptavidin-PE, 1 of 2 experiments. As to the method: (§1) Prior to the FACS staining, all cell lines were characterized for their 5T4 expression levels using a receptor density kit (Quantum Simply Cellular, anti-human IgG, Bangs Laboratories, Inc). Adherent cell lines were cultured according to their supplier's instructions and were harvested from their cell culture flasks using Trypsin/EDTA, counted in R10 medium in a Burker chamber, and diluted in FACS buffer (PBS+0.5% BSA, 0.05% NaN₃) to a concentration of 4×10⁶ cells/mL. 50 μL (0.20×10⁶) of cell solution was added to a 96-well FACS staining plate (Falcon #351190). Cells were incubated for 20 min in 4° C. with 50 μL of the biotinylated ALG.APV-210 (2× final concentration). The antibodies were added in a serial dilution starting at 20 μg/mL titrating down in a 12 step ½ dilution down to 0.010 μg/mL. […] Cells were analysed for ALG.APV-210 binding using flow cytometry (FACSVerse) by gating on single cells. MFI values (secondary antibody only subtracted) from 1 out of 2 independent experiments, as well as normalized data and EC₅₀-values of pooled data from 2 experiments were determined and plotted using GraphPad Prism 7, non-linear regression log (agonist) vs. normalized response—variable slope.
The binding (EC₅₀) of the biotinylated ALG.APV-210 to 5T4 when expressed on cells, either at endogenous levels on human tumor cells or on cells transfected to express 5T4 was assessed. […]

Test [3] addresses T1, human 5T4 on cells. Put plainly: flow cytometry, CT26-hu5T4^low cells, streptavidin-PE, normalized MFI of 2 pooled experiments. The method, then:
as §1, with “μg/mL. Following 2× washing with FACS buffer, cells were incubated for 30 min in 4° C. with 100 μL of a secondary antibody (streptavidin-PE, BD #554061, diluted 1/500).” for “μg/mL.”
In general terms: A flow cytometer gives signals particle by particle.

The target of test [4] is T1, human 5T4 on cells. Put plainly: flow cytometry, JEG cells, streptavidin-PE, normalized MFI of 2 pooled experiments. The method, then:
as §1, with “μg/mL. Following 2× washing with FACS buffer, cells were incubated for 30 min in 4° C. with 100 μL of a secondary antibody (streptavidin-PE, BD #554061, diluted 1/500).” for “μg/mL.”

Test [5] concerns the target T2, cynomolgus CD137 on cells (cynomolgus macaque, UniProt A9YYE7 24-254).
T2 construct: whole, on cells; also called CHO-K1/cynomolgus CD137 cell line; cynomolgus monkey CD137 on CD3-stimulated primary CD8 T cells
Put plainly: flow cytometry, CHO-K1 cells expressing cynomolgus CD137, PE anti-human IgG Fc secondary, MFI (median). As to the method: Binding studies on CHO-K1 cells lines expressing CD137 were performed by standard flow cytometry-based staining procedures. CHO-K1 cells (generated by Alligator) were transfected with human or cynomolgus macaque CD137. A typical experiment would label approximately 100,000 cells per well, in 96-well plates, with a range of 100 nM to 0.05 nM binding molecule in 50 μL of saline buffer with 2% BSA and 2 mM EDTA, for 30 min on ice, followed by washes and incubation with PE-labeled secondary antibody, goat anti-human IgG Fcγ ([…]), for 20 minutes on ice. Signal from bound molecules was detected using a LSR-II™ or a Symphony A3 flow cytometer (BD Biosciences) and analyzed by FlowJo flow cytometry analysis software. Median fluorescence intensity (MFI-median) of bound molecules on live cells was determined after exclusion of doublets cells. Nonlinear regression analysis to determine EC₅₀ values was performed in GraphPad Prism 6® graphing and statistics software.

Test [6] has as its target T1, human 5T4 on cells. The test is described as follows: flow cytometry, CHO-K1 cells expressing human 5T4, labelled anti-human IgG secondary, MFI (mean). As to the method:
Binding studies were performed by standard flow cytometry-based staining procedures two cell lines expressing 5T4:CHO-K1 cells (obtained from Alligator) transduced with human or cynomolgus macaque 5T4 and SKOV-3 human ovarian adenocarcinoma cells which express (human) 5T4. All labeling and washes were performed in U-bottom 96-well plates in saline buffer with 0.1% BSA and 2 mM EDTA. Cell were plated at approximately 100,000 cells per well and incubated with a range of 100 nM to 0.05 nM concentrations of test molecules in […], for 30 minutes on ice. Cells were washed three times then incubated for another 30 min on ice with fluorescently-labeled secondary polyclonal antibody, F(ab′)² goat anti-human IgG (Jackson ImmunoResearch Laboratories). The cells were then washed twice and the samples acquired in a BD LSRII or a Symphony A3 flow cytometer. The sample files were analyzed using FlowJo software; the mean fluorescence intensity (MFI-mean) or median fluorescence intensity (MFI-median) of the live population of cells in each well was calculated after gating on live cells (forward vs side scatter). Nonlinear regression analysis to determine EC₅₀ values was performed in GraphPad Prism 6® graphing and statistics software.

T2 sequence (A9YYE7 entry or part of it): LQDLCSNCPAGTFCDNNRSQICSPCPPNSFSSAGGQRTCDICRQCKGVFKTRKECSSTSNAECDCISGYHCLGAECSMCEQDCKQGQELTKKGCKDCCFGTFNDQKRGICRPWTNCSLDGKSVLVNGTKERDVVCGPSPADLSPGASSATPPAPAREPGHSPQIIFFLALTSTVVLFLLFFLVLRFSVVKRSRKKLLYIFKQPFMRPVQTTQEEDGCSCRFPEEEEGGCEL

B1: ALG.APV-210 (bispecific antibody)
chain: EVQLLESGGGLVQPGGSLRLSCAASGFTFSHGSMYWVRQAPGKGLEWVSSISSGSGSTYYADSVKGRFTISHDNSKNTLYLQMNSLRAEDTAVYYCARSSYYGSYYSIDYWGQGTLVTVSSGGGGSGGGGSGGGGSGGGGSDIQMTQSPSSLSASVGDRVTITCRASQSISSYLNWYQQKPGKAPKLLIYAASSLQSGVPSRFSGSGSGTDFTLTISSLQPEDFATYYCQQYYDNLPTFGQGTKLEIKEPKSSDKTHTCPPCPAPEAAGAPSVFLFPPKPKDTLMISRTPEVTCVVVDVSHEDPEVKFNWYVDGVEVHNAKTKPREEQYNSTYRVVSVLTVLHQDWLNGKEYKCAVSNKALPAPIEKTISKAKGQPREPQVYTLPPSRDELTKNQVSLTCLVKGFYPSDIAVEWESNGQPENNYKTTPPVLDSDGSFFLYSKLTVDKSRWQQGNVFSCSVMHEALHNHYTQKSLSLSPGSGGGGSGGGGSGGGGSPSEVQLLESGGGLVQPGGSLRLSCAASGFTFSSYAMSWVRQAPGKCLEWVSAISGSGGSTYYADSVKGRFTISRDNSKNTLYLQMNSLRAEDTAVYYCARYYGGYYSAWMDYWGQGTLVTVSSGGGGSGGGGSGGGGSGGGGSDIQMTQSPSSLSASVGDRVTITCRASQSISSFLNWYQQKPGKAPKLLIYAASSLQSGVPSRFSGSGSGTDFTLTISSLQPEDSATYYCQQTYGYLHTFGCGTKLEIKR
notes: Optimized ADAPTIR scFv-Fc-scFv homodimer with stabilizing disulfide in the 1210 scFv; also called 5T4-CD137 bispecific antibody
As a reminder, the EC50 is the midpoint of the concentration-response curve. A high value points to lower potency in that assay. The molecule B1 returned an EC50 with human 5T4 on cells [1] of 71 nM.

B2: biotinylated ALG.APV-210 (bispecific antibody)
chain: EVQLLESGGGLVQPGGSLRLSCAASGFTFSHGSMYWVRQAPGKGLEWVSSISSGSGSTYYADSVKGRFTISHDNSKNTLYLQMNSLRAEDTAVYYCARSSYYGSYYSIDYWGQGTLVTVSSGGGGSGGGGSGGGGSGGGGSDIQMTQSPSSLSASVGDRVTITCRASQSISSYLNWYQQKPGKAPKLLIYAASSLQSGVPSRFSGSGSGTDFTLTISSLQPEDFATYYCQQYYDNLPTFGQGTKLEIKEPKSSDKTHTCPPCPAPEAAGAPSVFLFPPKPKDTLMISRTPEVTCVVVDVSHEDPEVKFNWYVDGVEVHNAKTKPREEQYNSTYRVVSVLTVLHQDWLNGKEYKCAVSNKALPAPIEKTISKAKGQPREPQVYTLPPSRDELTKNQVSLTCLVKGFYPSDIAVEWESNGQPENNYKTTPPVLDSDGSFFLYSKLTVDKSRWQQGNVFSCSVMHEALHNHYTQKSLSLSPGSGGGGSGGGGSGGGGSPSEVQLLESGGGLVQPGGSLRLSCAASGFTFSSYAMSWVRQAPGKCLEWVSAISGSGGSTYYADSVKGRFTISRDNSKNTLYLQMNSLRAEDTAVYYCARYYGGYYSAWMDYWGQGTLVTVSSGGGGSGGGGSGGGGSGGGGSDIQMTQSPSSLSASVGDRVTITCRASQSISSFLNWYQQKPGKAPKLLIYAASSLQSGVPSRFSGSGSGTDFTLTISSLQPEDSATYYCQQTYGYLHTFGCGTKLEIKR
notes: also called ALG.APV-210 (biotinylated for FACS detection)
By EC50 (read off the curve) is commonly meant the midpoint of the concentration-response curve. With B2, the “EC50 (read off the curve)” value with human 5T4 on cells [2] was around 10 nM. Also, the concentration for a half-maximal effect (EC50) in the test with human 5T4 on cells [3] came to 11 nM; in the test with human 5T4 on cells [4], 8 nM.

B3: ALG.APV-187 (bispecific antibody)
chain: EVQLLESGGGLVQPGGSLRLSCAASGFTFSHGSMYWVRQAPGKGLEWVSSISSGSGSTYYADSVKGRFTISHDNSKNTLYLQMNSLRAEDTAVYYCARSSYYGSYYSIDYWGQGTLVTVSSGGGGSGGGGSGGGGSGGGGSDIQMTQSPSSLSASVGDRVTITCRASQSISSYLNWYQQKPGKAPKLLIYAASSLQSGVPSRFSGSGSGTDFTLTISSLQPEDFATYYCQQYYDNLPTFGQGTKLEIKSSEPKSSDKTHTCPPCPAPEAAGAPSVFLFPPKPKDTLMISRTPEVTCVVVDVSHEDPEVKFNWYVDGVEVHNAKTKPREEQYNSTYRVVSVLTVLHQDWLNGKEYKCAVSNKALPAPIEKTISKAKGQPREPQVYTLPPSRDELTKNQVSLTCLVKGFYPSDIAVEWESNGQPENNYKTTPPVLDSDGSFFLYSKLTVDKSRWQQGNVFSCSVMHEALHNHYTQKSLSLSPGSGGGGSGGGGSGGGGSPSEVQLLESGGGLVQPGGSLRLSCAASGFTFSSYAMSWVRQAPGKCLEWVSAISGSGGSTYYADSVKGRFTISRDNSKNTLYLQMNSLRAEDTAVYYCARYYGGYYSAWMDYWGQGTLVTVSSGGGGSGGGGSGGGGSGGGGSDIQMTQSPSSLSASVGDRVTITCRASQSISSFLNWYQQKPGKAPKLLIYAASSLQSGVPSRFSGSGSGTDFTLTISSLQPEDSATYYCQQTYGYLHTFGCGTKLEIKR
notes: Optimized ADAPTIR scFv-Fc-scFv homodimer with stabilizing disulfide in the 1210 scFv
As for B3, the EC50 in test [5] was 1.7 nM; with human 5T4 on cells [6], 5.6 nM. Also, the “Maximum MFI” value with human 5T4 on cells [6] worked out at 13500.
